Data published in patent publication US20220387586A1 (Hoffmann-La Roche, published 2022).

T1: LAG3 on cells (recombinant CHO cells expressing Lag3) (human, UniProt P18627 29-525)
T1 sequence: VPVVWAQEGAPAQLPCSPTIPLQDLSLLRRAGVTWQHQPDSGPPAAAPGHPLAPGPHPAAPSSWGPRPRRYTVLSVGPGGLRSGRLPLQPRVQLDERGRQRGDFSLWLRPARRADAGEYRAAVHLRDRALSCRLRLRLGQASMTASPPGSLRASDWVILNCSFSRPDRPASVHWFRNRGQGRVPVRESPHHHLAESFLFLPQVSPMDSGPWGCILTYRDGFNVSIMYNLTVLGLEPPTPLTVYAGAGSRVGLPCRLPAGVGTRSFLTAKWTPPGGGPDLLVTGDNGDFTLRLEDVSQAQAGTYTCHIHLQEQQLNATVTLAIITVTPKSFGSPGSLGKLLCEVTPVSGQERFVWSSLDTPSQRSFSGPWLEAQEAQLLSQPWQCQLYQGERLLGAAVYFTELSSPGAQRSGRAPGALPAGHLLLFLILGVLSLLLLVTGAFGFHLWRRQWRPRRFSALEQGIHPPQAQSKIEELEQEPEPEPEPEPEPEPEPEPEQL

T2: recombinant Human LAG-3 Fc Chimera Protein (R&D Systems, 2319-L3) (human, UniProt P18627 29-450)
T2 construct: Bought protein; also called huLAG3; not shown: Fc part of the chimera
T2 sequence: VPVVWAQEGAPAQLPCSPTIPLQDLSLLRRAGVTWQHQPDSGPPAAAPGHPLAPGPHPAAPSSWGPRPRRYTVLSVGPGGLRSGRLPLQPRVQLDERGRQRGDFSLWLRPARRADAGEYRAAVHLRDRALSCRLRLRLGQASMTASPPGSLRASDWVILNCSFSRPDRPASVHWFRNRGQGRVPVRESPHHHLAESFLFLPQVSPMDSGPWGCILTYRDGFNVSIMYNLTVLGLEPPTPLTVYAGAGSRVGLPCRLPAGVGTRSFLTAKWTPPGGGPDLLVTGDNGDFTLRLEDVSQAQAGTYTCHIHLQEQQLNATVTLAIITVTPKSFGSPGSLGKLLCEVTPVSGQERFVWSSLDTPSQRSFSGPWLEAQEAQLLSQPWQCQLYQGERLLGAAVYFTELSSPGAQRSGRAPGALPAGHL

T3: LAG3 on PD1+LAG3+ human U2OS cells (Homo sapiens (Human), UniProt P18627 23-525)
T3 construct: also called cellular LAG3 (dimerization assay); not shown: subunit of the reporter enzyme fused to the cytosolic C-terminus
T3 sequence: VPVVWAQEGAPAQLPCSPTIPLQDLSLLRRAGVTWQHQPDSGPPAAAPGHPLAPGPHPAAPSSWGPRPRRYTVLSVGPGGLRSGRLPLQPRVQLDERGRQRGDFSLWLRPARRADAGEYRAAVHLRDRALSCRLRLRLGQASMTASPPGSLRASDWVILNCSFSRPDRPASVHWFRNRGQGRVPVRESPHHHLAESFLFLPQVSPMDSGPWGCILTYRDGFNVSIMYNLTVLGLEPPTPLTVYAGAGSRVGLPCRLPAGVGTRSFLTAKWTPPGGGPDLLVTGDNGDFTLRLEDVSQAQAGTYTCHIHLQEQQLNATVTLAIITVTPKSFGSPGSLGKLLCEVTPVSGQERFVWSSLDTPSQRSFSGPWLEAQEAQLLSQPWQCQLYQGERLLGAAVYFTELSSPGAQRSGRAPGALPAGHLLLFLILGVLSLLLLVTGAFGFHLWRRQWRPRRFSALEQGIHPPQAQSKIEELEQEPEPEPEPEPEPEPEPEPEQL


Tests used:
[1] = molecular target: full-length human PD1 on cells (human, UniProt Q15116 25-288); experiment: cell-based or functional assay
full-length human PD1 on cells, sequence (Q15116 25-288 limits assumed): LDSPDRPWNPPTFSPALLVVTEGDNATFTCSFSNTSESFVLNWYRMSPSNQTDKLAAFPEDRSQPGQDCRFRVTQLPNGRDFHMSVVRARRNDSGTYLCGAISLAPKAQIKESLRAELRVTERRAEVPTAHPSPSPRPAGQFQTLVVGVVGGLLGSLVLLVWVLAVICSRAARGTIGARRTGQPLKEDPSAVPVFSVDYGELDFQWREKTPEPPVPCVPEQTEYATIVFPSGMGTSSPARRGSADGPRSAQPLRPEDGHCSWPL

[2] = molecular target: T1, LAG3 on cells (recombinant CHO cells …); experiment: cell-based or functional assay
[3] = molecular target: T2, recombinant Human LAG-3 Fc Chimera …; experiment: ELISA on coated Human LAG-3 Fc Chimera (rel. EC50)
Summary of the method: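 Wells blocked 1 h at RT in PBS + 2% BSA + 0.05% Tween 20; bound antibody detected with goat anti-human Ig κ-HRP (1:2000, 1 h RT), then TMB substrate for 2-10 min. Absorbance read at 370/492 nm.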

[4] = molecular target: T4, biotinylated PD1-ECD-AviHis (human, UniProt Q15116 25-170, biotinylated); experiment: ELISA on coated biotinylated PD1-ECD-AviHis (rel. EC50)
T4 construct: also called huPD1; hu PD1; not shown: Avi-His tag
T4 sequence (Q15116 25-170): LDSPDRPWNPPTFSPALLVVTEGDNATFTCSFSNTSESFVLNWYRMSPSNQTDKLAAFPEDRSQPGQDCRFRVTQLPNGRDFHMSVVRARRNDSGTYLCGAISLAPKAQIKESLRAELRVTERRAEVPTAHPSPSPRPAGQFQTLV
Method: After washing (3×90 μl/well with PBST-buffer) 25 μl/well goat-anti-human H+L-POD (JIR, JIR109-036-098) was added in 1:5000 dilution and incubated at RT for 1 h on a shaker. After washing (3×90 μl/well with PBST-buffer) 25 μl/well of TMB substrate (Roche, 11835033001) was added and incubated until OD 2-3. Measurement took place at 370/492 nm.

[5] = molecular target: PD1 on PD1+LAG3+ human U2OS cells (UniProt Q15116 25-288); experiment: cellular PD1/LAG3 dimerization assay, 7500 PD1+LAG3+ U2OS cells a well, 20 h at 37 °C, chemoluminescence; the signal needs PD1 and LAG3 bound at once
PD1 on PD1+LAG3+ human U2OS cells, sequence (Q15116 25-288): as the sequence (Q15116 25-288 limits assumed) above
Method: (§1) Next, assay plates were equilibrated to room temperature and a substrate/buffer mix (PathHunterFlash detection reagent, Discoverx) was added and again incubated for 4h. For measuring chemoluminescence induced upon simultaneous binding and dimerization a SpectraMax L plate reader (Molecular Devices) was used.

[6] = molecular target: T3, LAG3 on PD1+LAG3+ human U2OS cells; experiment: as above
Method: as §1

Row | Binder | EC50 [nM], PD-1 & LAG-3 combo reporter assay (NFAT luciferase) [1] [nM] | EC50 [nM], PD-1 & LAG-3 combo reporter assay (NFAT luciferase) [2] [nM] | EC50 [3] [nM] | EC50 [4] [nM] | EC50 (read off the curve) [5] [nM] | EC50 (read off the curve) [6] [nM]
1 | PD1/LAG3 0927 (bispecific antibody, human IgG1, kappa, L234A L235A, 1+1 CrossMAb Vh-VL, knobs into holes, IgG1 PGLALA) heavy 1: not shown heavy 2: EVQLLESGGGLVQPGGSLRLSCAASGFIFDDYTMNWVRQAPGKGLEWVAVISWDGGGTYYTDSVKGRFTISRDDFKNTLYLQMNSLRAEDTAVYYCAKGLTDTTLYGSDYWGQGTLVTVSSASTKGPSVFPLAPSSKSTSGGTAALGCLVEDYFPEPVTVSWNSGALTSGVHTFPAVLQSSGLYSLSSVVTVPSSSLGTQTYICNVNHKPSNTKVDEKVEPKSCDKTHTCPPCPAPEAAGGPSVFLFPPKPKDTLMISRTPEVTCVVVDVSHEDPEVKFNWYVDGVEVHNAKTKPREEQYNSTYRVVSVLTVLHQDWLNGKEYKCKVSNKALGAPIEKTISKAKGQPREPQVCTLPPSRDELTKNQVSLSCAVKGFYPSDIAVEWESNGQPENNYKTTPPVLDSDGSFFLVSKLTVDKSRWQQGNVFSCSVMHEALHNHYTQKSLSLSPGK light 1: EVQLLESGGGLVQPGGSLRLSCAASGFSFSSYTMSWVRQAPGKGLEWVATISGGGRDIYYPDSVKGRFTISRDNSKNTLYLQMNSLRAEDTAVYYCVLLTGRVYFALDSWGQGTLVTVSSASVAAPSVFIFPPSDEQLKSGTASVVCLLNNFYPREAKVQWKVDNALQSGNSQESVTEQDSKDSTYSLSSTLTLSKADYEKHKVYACEVTHQGLSSPVTKSFNRGEC light 2: not shown | 3.1 | 3.1 | 0.18 | 0.07 | ~0.05 | ~0.05
2 | PD1/LAG3 0799 (bispecific antibody, human IgG1, kappa, L234A L235A, 1+1 CrossMAb Vh-VL, knobs into holes, IgG1 PGLALA) heavy 1: not shown heavy 2: EVQLVESGGGLVQPGGSLRLACAASGFTFSDYAMSWVRQAPGKGLEWVSGIDNSGYYTYYTDSVKGRFTISRDDVKNTLYLQMNSLRAEDTAVYLCTKTHSGLIVNDAFDIWGQGTMVTVSSASTKGPSVFPLAPSSKSTSGGTAALGCLVEDYFPEPVTVSWNSGALTSGVHTFPAVLQSSGLYSLSSVVTVPSSSLGTQTYICNVNHKPSNTKVDEKVEPKSCDKTHTCPPCPAPEAAGGPSVFLFPPKPKDTLMISRTPEVTCVVVDVSHEDPEVKFNWYVDGVEVHNAKTKPREEQYNSTYRVVSVLTVLHQDWLNGKEYKCKVSNKALGAPIEKTISKAKGQPREPQVCTLPPSRDELTKNQVSLSCAVKGFYPSDIAVEWESNGQPENNYKTTPPVLDSDGSFFLVSKLTVDKSRWQQGNVFSCSVMHEALHNHYTQKSLSLSPGK light 1: EVQLLESGGGLVQPGGSLRLSCAASGFSFSSYTMSWVRQAPGKGLEWVATISGGGRDIYYPDSVKGRFTISRDNSKNTLYLQMNSLRAEDTAVYYCVLLTGRVYFALDSWGQGTLVTVSSASVAAPSVFIFPPSDEQLKSGTASVVCLLNNFYPREAKVQWKVDNALQSGNSQESVTEQDSKDSTYSLSSTLTLSKADYEKHKVYACEVTHQGLSSPVTKSFNRGEC light 2: not shown |  |  | 0.07 | 0.06 |  | 
